Values belong to the substance of their own block, whether it stands above or below them.
Assays:
[1] = molecular target: Recombinant Human DLL4 (R&D Systems Cat#1506-D4/CF) (human) (UniProt Q9NR61); test: MSD ECL multi-spot plate; Fab 98.1 nM; blank spot 210
[2] = molecular target: rHuman Notch-1/Fc Chimera, CF (R&D Systems Cat#3647-TK) (human) (UniProt P46531); test: as above
[3] = molecular target: rHuman EGF R/Fc Chimera, CF (R&D Systems Cat#344-ER) (human) (UniProt P00533); test: as above
[4] = molecular target: Recombinant Human DLL4 (R&D Systems Cat#1506-D4/CF) (human) (UniProt Q9NR61); test: MSD ECL multi-spot plate; Fab […]; blank spot 149
[5] = molecular target: rHuman Notch-1/Fc Chimera, CF (R&D Systems Cat#3647-TK) (human) (UniProt P46531); test: MSD ECL multi-spot plate; Fab […]; blank spot 149
[6] = molecular target: rHuman EGF R/Fc Chimera, CF (R&D Systems Cat#344-ER) (human) (UniProt P00533); test: MSD ECL multi-spot plate; Fab […]; blank spot 149
[7] = molecular target: Recombinant Human DLL4 (R&D Systems Cat#1506-D4/CF) (human) (UniProt Q9NR61); test: MSD ECL multi-spot plate; Fab 392.5 nM; blank spot 338
[8] = molecular target: rHuman Notch-1/Fc Chimera, CF (R&D Systems Cat#3647-TK) (human) (UniProt P46531); test: as above
[9] = molecular target: rHuman EGF R/Fc Chimera, CF (R&D Systems Cat#344-ER) (human) (UniProt P00533); test: as above
[10] = molecular target: Recombinant Human DLL4 (R&D Systems Cat#1506-D4/CF) (human) (UniProt Q9NR61); test: MSD ECL multi-spot plate; Fab 1570 nM; blank spot 866
[11] = molecular target: rHuman Notch-1/Fc Chimera, CF (R&D Systems Cat#3647-TK) (human) (UniProt P46531); test: as above
[12] = molecular target: rHuman EGF R/Fc Chimera, CF (R&D Systems Cat#344-ER) (human) (UniProt P00533); test: as above
[13] = molecular target: rHuman ErbB2/Fc Chimera, CF (R&D Systems Cat#1129-ER) (human) (UniProt P04626); test: ECL (MSD multi-spot), antigen spotted on plate; Fab 1.6 nM; blank 648
[14] = molecular target: rHuman CD44/Fc Chimera, CF (R&D Systems Cat#3660-CD) (human) (UniProt P16070); test: as above
[15] = molecular target: rHuman Notch-1/Fc Chimera, CF (R&D Systems Cat#3647-TK) (human) (UniProt P46531); test: as above
[16] = molecular target: rHuman Erythropoietin R/Fc Chimera, CF (R&D Systems Cat#963-ER) (human) (UniProt P19235); test: as above
Sequence of rHuman Erythropoietin R/Fc Chimera, CF (R&D Systems Cat#963-ER) (human) (P19235 25-250, change not shown): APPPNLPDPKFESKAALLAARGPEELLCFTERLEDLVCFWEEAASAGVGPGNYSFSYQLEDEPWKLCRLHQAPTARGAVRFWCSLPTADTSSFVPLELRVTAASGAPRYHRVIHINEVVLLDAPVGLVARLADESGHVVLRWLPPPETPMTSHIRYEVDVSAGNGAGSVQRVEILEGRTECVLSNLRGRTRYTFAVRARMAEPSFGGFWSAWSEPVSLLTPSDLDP

[17] = molecular target: rHuman P-Cadherin/Fc Chimera, CF (R&D Systems Cat#861-PC) (human) (UniProt P22223); test: as above
[18] = molecular target: rHuman ErbB2/Fc Chimera, CF (R&D Systems Cat#1129-ER) (human) (UniProt P04626); test: ECL (MSD multi-spot), antigen spotted on plate; Fab 1000 nM; blank 2142
[19] = molecular target: rHuman CD44/Fc Chimera, CF (R&D Systems Cat#3660-CD) (human) (UniProt P16070); test: as above
[20] = molecular target: rHuman Notch-1/Fc Chimera, CF (R&D Systems Cat#3647-TK) (human) (UniProt P46531); test: as above
[21] = molecular target: rHuman Erythropoietin R/Fc Chimera, CF (R&D Systems Cat#963-ER) (human) (UniProt P19235); test: as above
[22] = molecular target: rHuman P-Cadherin/Fc Chimera, CF (R&D Systems Cat#861-PC) (human) (UniProt P22223); test: as above
[23] = molecular target: rHuman ErbB2/Fc Chimera, CF (R&D Systems Cat#1129-ER) (human) (UniProt P04626); test: ECL (MSD multi-spot), antigen spotted on plate; Fab 40 nM; blank 1229
[24] = molecular target: rHuman CD44/Fc Chimera, CF (R&D Systems Cat#3660-CD) (human) (UniProt P16070); test: as above
[25] = molecular target: rHuman Notch-1/Fc Chimera, CF (R&D Systems Cat#3647-TK) (human) (UniProt P46531); test: as above
[26] = molecular target: rHuman Erythropoietin R/Fc Chimera, CF (R&D Systems Cat#963-ER) (human) (UniProt P19235); test: as above
[27] = molecular target: rHuman P-Cadherin/Fc Chimera, CF (R&D Systems Cat#861-PC) (human) (UniProt P22223); test: as above
[28] = molecular target: rHuman ErbB2/Fc Chimera, CF (R&D Systems Cat#1129-ER) (human) (UniProt P04626); test: ECL (MSD multi-spot), antigen spotted on plate; Fab […]; blank 428
[29] = molecular target: rHuman CD44/Fc Chimera, CF (R&D Systems Cat#3660-CD) (human) (UniProt P16070); test: as above
[30] = molecular target: rHuman Notch-1/Fc Chimera, CF (R&D Systems Cat#3647-TK) (human) (UniProt P46531); test: as above
[31] = molecular target: rHuman Erythropoietin R/Fc Chimera, CF (R&D Systems Cat#963-ER) (human) (UniProt P19235); test: as above
[32] = molecular target: rHuman P-Cadherin/Fc Chimera, CF (R&D Systems Cat#861-PC) (human) (UniProt P22223); test: as above
[33] = molecular target: rHuman ErbB2/Fc Chimera, CF (R&D Systems Cat#1129-ER) (human) (UniProt P04626); test: ECL (MSD multi-spot), antigen spotted on plate; Fab 200 nM; blank 1659
[34] = molecular target: rHuman CD44/Fc Chimera, CF (R&D Systems Cat#3660-CD) (human) (UniProt P16070); test: as above
[35] = molecular target: rHuman Notch-1/Fc Chimera, CF (R&D Systems Cat#3647-TK) (human) (UniProt P46531); test: as above
[36] = molecular target: rHuman Erythropoietin R/Fc Chimera, CF (R&D Systems Cat#963-ER) (human) (UniProt P19235); test: as above
[37] = molecular target: rHuman P-Cadherin/Fc Chimera, CF (R&D Systems Cat#861-PC) (human) (UniProt P22223); test: as above
[38] = molecular target: rHuman ErbB2/Fc Chimera, CF (R&D Systems Cat#1129-ER) (human) (UniProt P04626); test: ECL (MSD multi-spot), antigen spotted on plate; Fab 8 nM; blank 1188
[39] = molecular target: rHuman CD44/Fc Chimera, CF (R&D Systems Cat#3660-CD) (human) (UniProt P16070); test: as above
[40] = molecular target: rHuman Notch-1/Fc Chimera, CF (R&D Systems Cat#3647-TK) (human) (UniProt P46531); test: as above
[41] = molecular target: rHuman Erythropoietin R/Fc Chimera, CF (R&D Systems Cat#963-ER) (human) (UniProt P19235); test: as above
[42] = molecular target: rHuman P-Cadherin/Fc Chimera, CF (R&D Systems Cat#861-PC) (human) (UniProt P22223); test: as above
[43] = molecular target: rHuman EGF R/Fc Chimera, CF (R&D Systems Cat#344-ER) (human) (UniProt P00533); test: ECL (MSD multi-spot), Fab 58.1 nM; blank 225
[44] = molecular target: rHuman IGF-1 sR (IGF-1 sR), CF (R&D Systems Cat#391-GR) (human) (UniProt P08069); test: ECL (MSD multi-spot), Fab 58.1 nM; blank 225
[45] = molecular target: rHuman P-Cadherin/Fc Chimera, CF (R&D Systems Cat#861-PC) (human) (UniProt P22223); test: ECL (MSD multi-spot), Fab 58.1 nM; blank 225
[46] = molecular target: rHuman EGF R/Fc Chimera, CF (R&D Systems Cat#344-ER) (human) (UniProt P00533); test: ECL (MSD multi-spot), Fab 930 nM; blank 1206
[47] = molecular target: rHuman IGF-1 sR (IGF-1 sR), CF (R&D Systems Cat#391-GR) (human) (UniProt P08069); test: ECL (MSD multi-spot), Fab 930 nM; blank 1206
[48] = molecular target: rHuman P-Cadherin/Fc Chimera, CF (R&D Systems Cat#861-PC) (human) (UniProt P22223); test: ECL (MSD multi-spot), Fab 930 nM; blank 1206
[49] = molecular target: rHuman EGF R/Fc Chimera, CF (R&D Systems Cat#344-ER) (human) (UniProt P00533); test: ECL (MSD multi-spot), Fab 232.5 nM; blank 460
[50] = molecular target: rHuman IGF-1 sR (IGF-1 sR), CF (R&D Systems Cat#391-GR) (human) (UniProt P08069); test: ECL (MSD multi-spot), Fab 232.5 nM; blank 460
[51] = molecular target: rHuman P-Cadherin/Fc Chimera, CF (R&D Systems Cat#861-PC) (human) (UniProt P22223); test: ECL (MSD multi-spot), Fab 232.5 nM; blank 460
[52] = molecular target: rHuman EGF R/Fc Chimera, CF (R&D Systems Cat#344-ER) (human) (UniProt P00533); test: ECL (MSD multi-spot), Fab 14.5 nM; blank 117
[53] = molecular target: rHuman IGF-1 sR (IGF-1 sR), CF (R&D Systems Cat#391-GR) (human) (UniProt P08069); test: ECL (MSD multi-spot), Fab 14.5 nM; blank 117
[54] = molecular target: rHuman P-Cadherin/Fc Chimera, CF (R&D Systems Cat#861-PC) (human) (UniProt P22223); test: ECL (MSD multi-spot), Fab 14.5 nM; blank 117

ECL signal [1]: 402 ECL signal
ECL signal [2]: 313 ECL signal
ECL signal [3]: 4390 ECL signal
ECL signal [4]: 339 ECL signal
ECL signal [5]: 434 ECL signal
ECL signal [6]: 317 ECL signal
ECL signal [7]: 735 ECL signal
ECL signal [8]: 749 ECL signal
ECL signal [9]: 744 ECL signal
ECL signal [10]: 2700 ECL signal
ECL signal [11]: 1640 ECL signal
ECL signal [12]: 2480 ECL signal
Substance: Fab VH1-46_IGHD3-10*01_IGHJ4*01 & O1_IGKJ1*01

ECL signal [13]: 1170
ECL signal [14]: 1020
ECL signal [15]: 1170
ECL signal [16]: 1120
ECL signal [17]: 1140
ECL signal [18]: 7420
ECL signal [19]: 4730
ECL signal [20]: 8060
ECL signal [21]: 8290
ECL signal [22]: 5630
ECL signal [23]: 2230
ECL signal [24]: 2680
ECL signal [25]: 3480
ECL signal [26]: 3510
ECL signal [27]: 2600
ECL signal [28]: 766
ECL signal [29]: 684
ECL signal [30]: 739
ECL signal [31]: 739
ECL signal [32]: 649
ECL signal [33]: 4040
ECL signal [34]: 3190
ECL signal [35]: 5700
ECL signal [36]: 4000
ECL signal [37]: 3990
ECL signal [38]: 1900
ECL signal [39]: 1490
ECL signal [40]: 2200
ECL signal [41]: 1980
ECL signal [42]: 1920
Substance: Fab VH1-46_IGHD6-6*01_IGHJ1*01_S104A & L6_IGKJ1*01

ECL signal [43]: 444 ECL signal
ECL signal [44]: 343 ECL signal
ECL signal [45]: 478 ECL signal
ECL signal [46]: 3110 ECL signal
ECL signal [47]: 1920 ECL signal
ECL signal [48]: 2440 ECL signal
ECL signal [49]: 803 ECL signal
ECL signal [50]: 569 ECL signal
ECL signal [51]: 655 ECL signal
ECL signal [52]: 357 ECL signal
ECL signal [53]: 234 ECL signal
ECL signal [54]: 277 ECL signal
Substance: Fab VH1-46_IGHD6-13*01_IGHJ4*01 & O1_IGKJ1*01
